# Source: IntAct's records for PubMed 25803835
# B1: Serine/threonine-protein kinase TBK1 (Homo sapiens), Q9UHD2 (parent)
# chain: MQSTSNHLWLLSDILGQGATANVFRGRHKKTGDLFAIKVFNNISFLRPVDVQMREFEVLKKLNHKNIVKLFAIEEETTTRHKVLIMEFCPCGSLYTVLEEPSNAYGLPESEFLIVLRDVVGGMNHLRENGIVHRDIKPGNIMRVIGEDGQSVYKLTDFGAARELEDDEQFVSLYGTEEYLHPDMYERAVLRKDHQKKYGATVDLWSIGVTFYHAATGSLPFRPFEGPRRNKEVMYKIITGKPSGAISGVQKAENGPIDWSGDMPVSCSLSRGLQVLLTPVLANILEADQEKCWGFDQFFAETSDILHRMVIHVFSLQQMTAHKIYIHSYNTATIFHELVYKQTKIISSNQELIYEGRRLVLEPGRLAQHFPKTTEENPIFVVSREPLNTIGLIYEKISLPKVHPRYDLDGDASMAKAITGVVCYACRIASTLLLYQELMRKGIRWLIELIKDDYNETVHKKTEVVITLDFCIRNIEKTVKVYEKLMKINLEAAELGEISDIHTKLLRLSSSQGTIETSLQDIDSRLSPGGSLADAWAHQEGTHPKDRNVEKLQVLLNCMTEIYYQFKKDKAERRLAYNEEQIHKFDKQKLYYHATKAMTHFTDECVKKYEAFLNKSEEWIRKMLHLRKQLLSLTNQCFDIEEEVSKYQEYTNELQETLPQKMFTASSGIKHTMTPIYPSSNTLVEMTLGMKKLKEEMEGVVKELAENNHILERFGSLTMDGGLRNVDCL
# B2: Serine/threonine-protein kinase TBK1 (Homo sapiens), Q9UHD2 (parent)
# chain: B1 chain
# partner: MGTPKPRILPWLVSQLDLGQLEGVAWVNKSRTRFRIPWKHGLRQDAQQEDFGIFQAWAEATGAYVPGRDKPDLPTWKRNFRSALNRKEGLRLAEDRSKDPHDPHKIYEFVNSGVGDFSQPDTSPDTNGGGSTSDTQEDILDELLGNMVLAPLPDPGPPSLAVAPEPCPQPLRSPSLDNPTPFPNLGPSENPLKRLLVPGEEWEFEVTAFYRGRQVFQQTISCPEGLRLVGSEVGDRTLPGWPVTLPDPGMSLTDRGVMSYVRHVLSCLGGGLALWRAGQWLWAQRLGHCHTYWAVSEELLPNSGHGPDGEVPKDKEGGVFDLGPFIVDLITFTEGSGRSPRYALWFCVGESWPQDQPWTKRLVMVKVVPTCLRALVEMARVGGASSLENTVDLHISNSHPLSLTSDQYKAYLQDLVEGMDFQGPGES
# Variants of: B1
# Conditions: with optn_human OPTN
row,effect of a mutation on the interaction,Variant
1,with no effect,R308Q
2,disrupting interaction strength,M559R
3,decreasing interaction strength,R357Q
4,with no effect,K38A
5,increasing interaction strength,R47H

# Variants of: B1
# Conditions: with optn_human OPTN
# Remark: another data set of the same source
row,effect of a mutation on the interaction,Variant
1,disrupting interaction strength,R357Q
2,disrupting interaction strength,E696K

# Variants of: B2
# Conditions: with irf3_human IRF3, Q14653
row,effect of a mutation on the interaction,Variant
1,disrupting interaction strength,R357Q
2,decreasing interaction strength,E696K
3,decreasing interaction strength,R308Q
4,increasing interaction strength,R47H
5,disrupting interaction strength,M559R
